In publication PMC8484739 (The Journal of Biological Chemistry, 2021):
Positions count from the first letter of the chain named. Names may count otherwise. Where two headings read alike, the source gives them in different places. One block for each molecule: values may come before it.

Experiments:
[1] = molecular target: wild type CD70-His-Avi (human) (UniProt P32970); assay: SPR
[2] = molecular target: wild type CD70-His-Avi (human) (UniProt P32970); assay: SPR; remark: listed apart in the source
[3] = molecular target: wild type CD70-His-Avi (human) (UniProt P32970); assay: SPR; remark: listed apart in the source
[4] = molecular target: human CD70 S137K, His-Avi tagged, purified (human) (UniProt P32970); assay: SPR
CD70-Q61A (human) = CD70-Q61A (human) (UniProt P32970); assay: SPR
CD70-A80F (human) = CD70-A80F (human) (UniProt P32970); assay: SPR
CD70-A80R (human) = CD70-A80R (human) (UniProt P32970); assay: SPR
CD70-H148E (human) = CD70-H148E (human) (UniProt P32970); assay: SPR
CD70-S137A (human) = CD70-S137A (human) (UniProt P32970); assay: SPR
CD70-H148A (human) = CD70-H148A (human) (UniProt P32970); assay: SPR
CD70-S137E (human) = CD70-S137E (human) (UniProt P32970); assay: SPR
CD70-S146A (human) = CD70-S146A (human) (UniProt P32970); assay: SPR
CD70-S137K (human) = CD70-S137K (human) (UniProt P32970); assay: SPR
CD70-H148D (human) = CD70-H148D (human) (UniProt P32970); assay: SPR
wild type CD70-His-Avi = molecular target: T1, wild type CD70-His-Avi (human, UniProt P32970 45-193); assay: SPR
T1 sequence (looked up): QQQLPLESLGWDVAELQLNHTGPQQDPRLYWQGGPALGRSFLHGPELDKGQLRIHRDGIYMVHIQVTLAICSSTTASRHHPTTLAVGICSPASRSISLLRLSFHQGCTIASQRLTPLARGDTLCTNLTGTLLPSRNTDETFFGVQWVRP

SEC = molecular target: the molecule itself; assay: SEC

Molecule: human CD27 wild-type (glycosylated) (from UniProt P26842 23-127) (receptor)
Kd [1]: 134 nM | half-life (calculated from kd) [1]: 2.67 min | Kd [2]: 135 nM | Kd [3]: 121 nM

B1: human CD27 wild type, glycosylated (residues A23-S127) (receptor)
chain: APKSCPERHYWAQGKLCCQMCEPGTFLVKDCDQHRKAAQCDPCIPGVSFSPDHHTRPHCESCRHCNSGLLVRNCTITANAECACRNGWQCRDKECTECDPLPNPS
modifications: N-linked glycan (glycosylated form)
Kd [4]: 113 nM

B2: human CD27 wild-type (glycosylated) (receptor)
chain: B1 chain
modifications: N-linked glycans kept (glycosylated; no Endo H digestion)
Kd (CD70-Q61A (human)): 205 nM | Kd (CD70-A80F (human)): 643 nM | Kd (CD70-A80R (human)): 163 nM | Kd (CD70-H148E (human)): 380 nM | Kd (CD70-S137A (human)): 156 nM | Kd (CD70-H148A (human)): 236 nM | Kd (CD70-S137E (human)): 526 nM | Kd (CD70-S146A (human)): 116 nM | Kd (CD70-S137K (human)): 135 nM | Kd (CD70-H148D (human)): 477 nM

B4: CD27-S83A (receptor, human, UniProt P26842 23-127, looked up)
chain: B1 chain with S61A
modifications: glycosylated
Kd (wild type CD70-His-Avi): 254 nM | koff (wild type CD70-His-Avi): 0.00854 s⁻¹ | kon (wild type CD70-His-Avi): 33600 M⁻¹ s⁻¹

B7: glycosylated human CD70 (crystallisation construct) (ligand, UniProt P32970 45-193, looked up)
chain: T1 sequence (looked up)
modifications: N-linked glycans on N63 and N170; core fucosylation at N63
stoichiometry N (SEC): 3

Now from value to molecule:

Kd [1]: 118 nM | half-life (calculated from kd) [1]: 1.9 min
Molecule: deglycosylated human CD27 (from UniProt P26842 23-127) (receptor)

Kd (wild type CD70-His-Avi): 102 nM | koff (wild type CD70-His-Avi): 0.00351 s⁻¹ | kon (wild type CD70-His-Avi): 34500 M⁻¹ s⁻¹
B3: CD27-K115A (receptor, human, UniProt P26842 23-127, looked up)
chain: B1 chain with K93A
modifications: glycosylated

Kd (wild type CD70-His-Avi): 351 nM | koff (wild type CD70-His-Avi): 0.0047 s⁻¹ | kon (wild type CD70-His-Avi): 13400 M⁻¹ s⁻¹
B5: CD27-R30A (receptor, human, UniProt P26842 23-127, looked up)
chain: B1 chain with R8A
modifications: glycosylated

Kd (wild type CD70-His-Avi): 100 nM | koff (wild type CD70-His-Avi): 0.00726 s⁻¹ | kon (wild type CD70-His-Avi): 72500 M⁻¹ s⁻¹
B6: CD27-N95A (receptor, human, UniProt P26842 23-127, looked up)
chain: B1 chain with N73A
